Test results taken from patent US20230301998.
Positions count from the first letter of the chain named.

Key:
V5-tagged IFI204 R12A = system: T1, V5-tagged IFI204 R12A
T1 sequence: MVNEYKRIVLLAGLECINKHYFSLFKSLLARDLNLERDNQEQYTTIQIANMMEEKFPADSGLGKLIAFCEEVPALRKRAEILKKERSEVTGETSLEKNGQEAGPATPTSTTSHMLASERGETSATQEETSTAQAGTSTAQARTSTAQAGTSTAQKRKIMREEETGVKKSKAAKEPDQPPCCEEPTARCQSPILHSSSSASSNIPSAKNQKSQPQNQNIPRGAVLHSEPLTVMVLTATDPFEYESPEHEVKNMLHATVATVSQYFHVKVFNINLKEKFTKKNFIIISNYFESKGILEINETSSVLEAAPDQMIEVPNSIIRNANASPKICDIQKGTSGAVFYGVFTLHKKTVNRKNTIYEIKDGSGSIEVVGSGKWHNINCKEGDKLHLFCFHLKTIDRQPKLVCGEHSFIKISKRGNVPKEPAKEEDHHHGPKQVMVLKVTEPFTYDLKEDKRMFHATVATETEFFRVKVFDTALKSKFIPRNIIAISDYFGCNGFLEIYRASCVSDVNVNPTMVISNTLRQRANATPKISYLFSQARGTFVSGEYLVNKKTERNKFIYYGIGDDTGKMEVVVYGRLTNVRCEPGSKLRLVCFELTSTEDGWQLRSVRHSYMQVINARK

[1] = system: T2, V5-tagged IFI204 RR12/538AA
T2 sequence: T1 sequence with R538A

V5-tagged IFI204 WT = system: T3, V5-tagged IFI204 WT
T3 sequence: T1 sequence with A12R

V5-tagged IFI204 R538A = system: T4, V5-tagged IFI204 R538A
T4 sequence: T1 sequence with A12R, R538A

## recombinant active PRMT5 plus WDR77
V5-tagged IFI204 R12A
  in vitro methylation (3H-SAM, autoradiography): Immunopurified WT IFI204, but not a mutant form lacking either Arg12, Arg538 or both, was methylated in vitro by recombinant PRMT5
[1]
  in vitro methylation (3H-SAM, autoradiography): Immunopurified WT IFI204, but not a mutant form lacking either Arg12, Arg538 or both, was methylated in vitro by recombinant PRMT5
V5-tagged IFI204 WT
  in vitro methylation (3H-SAM, autoradiography): IFI204 WT protein was methylated by PRMT5 /WDR77
V5-tagged IFI204 R538A
  in vitro methylation (3H-SAM, autoradiography): Immunopurified WT IFI204, but not a mutant form lacking either Arg12, Arg538 or both, was methylated in vitro by recombinant PRMT5
